Experimental data taken from paper PMC11926874, “Patulin Detoxification by Evolutionarily Divergent Reductases of Gluconobacter oxydans ATCC 621” (Journal of Agricultural and Food Chemistry, 2025).

B1: GOX1462 (Gluconobacter oxydans 621H) (protein)
chain: MQYRQLGRSGLKISALNFGSVTFGGQGNFAATGKVDIAEATRMVDICVEHGVNMFDTADAYSGGEAEEILGRVLQGRSRELLVTSKVRFPTGKGPNEQGLSRHHILNACDDSLRRLGRDHIDLYYLHEWDGLTPVEETLEALQTLRDQGKIRYAGISNFAGWQAMKLLGAAERDRLIAPVSQQLYYSLEARDAEYELLPLAVDQGLGVQVWSPLACGLLTGKYRRGKTAPEDSRRISGWPEPEVRDLKKLYDTVEVLVQIAEEHSVSAARVALAWTLHKPAITSLVLGARQESQLLDNLAAASLRLTQEQVRRLDDVSAPDLIYPYWHQNRNAFDRLSKADLVLQGPAKRHREALETKK
notes: recombinant N-terminal His-tagged protein
B2: GOX0716 (Gluconobacter oxydans 621H) (protein)
chain: MADHSIKGKTALITGGAKNLGGLIALDLAAQGAAAIAIHYNSAATRPDAEATVTALKMQGVRAQAFQADLTTAAANEKLFTDVVAALGKPDIAINTAGKVLKKLILETSEDEYDEMFAINAKAAYFFIKEAGRHLNDNGKLVTIVTSLLGAYTPFYSTYAGSKAAVEHVTRAASKEFGARGISVNAIGPGPMDTPFFYGQEAPEAVAYHKTAAALSSLSKTGLTDIEDIVPIVRCLVSDGWWMTGQTILVNGGYTTK
notes: as for B1

Key:
GOX1462 = target: T1, GOX1462 (Gluconobacter oxydans, UniProt Q5FQY5); assay: tryptophan fluorescence quenching; type: binding
T1 construct: recombinant N-terminal His-tagged protein
T1 sequence (Q5FQY5 1-359): B1 chain

GOX0716 = target: T2, GOX0716 (Gluconobacter oxydans, UniProt Q5FT03); assay: tryptophan fluorescence quenching; type: binding
T2 construct: recombinant N-terminal His-tagged protein
T2 sequence (Q5FT03 1-257): B2 chain

[1] = substrate: O=Cc1ccccc1; assay: purified protein, by the assay type; parameters: steady-state Michaelis-Menten kinetics of carbonyl substrate reduction, NADPH consumption at 340 nm, 25 °C; details: 25.0 °C
Procedure: (§1) For substrate specificity, kinetic measurements were performed at 25 °C in triplicate in 100 mM potassium phosphate buffer, pH 6.0 (for GOX0716) or pH 7.0 (for GOX1462). Substrate utilization was monitored by the decrease in the level of NADPH at 340 nm using a BioTek Epoch 2 microplate reader. Reactions were conducted in a total volume of 200 μL. The molar extinction coefficient of NADPH was determined by constructing a linear regression standard line using NADPH standards of known concentrations. One unit (1 U) of enzyme activity is defined as the amount of enzyme required to oxidize 1 μmol NADPH per minute. Stock solutions of substrates were prepared in dimethyl sulfoxide (DMSO). All kinetic data fitting was performed using nonlinear regression with GraphPad Prism, version 8. All data were fitted to the Michaelis–Menten equation. The kinetic parameters for each enzyme were determined at their respective pH optimum.

[2] = substrate: O=CC(O)CO; assay: purified protein, by the assay type; parameters: steady-state Michaelis-Menten kinetics of carbonyl substrate reduction, NADPH consumption at 340 nm, 25 °C; details: 25.0 °C
Procedure: as §1

[3] = substrate: CCC=O; assay: purified protein, by the assay type; parameters: steady-state Michaelis-Menten kinetics of carbonyl substrate reduction, NADPH consumption at 340 nm, 25 °C; details: 25.0 °C
Procedure: as §1

[4] = substrate: CCCCCC=O; assay: purified protein, by the assay type; parameters: steady-state Michaelis-Menten kinetics of carbonyl substrate reduction, NADPH consumption at 340 nm, 25 °C; details: 25.0 °C
Procedure: as §1

[5] = substrate: CCCCCCC=O; assay: purified protein, by the assay type; parameters: steady-state Michaelis-Menten kinetics of carbonyl substrate reduction, NADPH consumption at 340 nm, 25 °C; details: 25.0 °C
Procedure: as §1

[6] = substrate: CC(=O)C=O; assay: purified protein, by the assay type; parameters: steady-state Michaelis-Menten kinetics of carbonyl substrate reduction, NADPH consumption at 340 nm, 25 °C; details: 25.0 °C
Procedure: as §1

purified protein [7] = substrate: CCCC=O; assay: purified protein; type: biochemical, Gluconobacter oxydans; details: NADPH
purified protein [8] = substrate: O=C1C(=O)c2ccccc2-c2ccccc21; assay: purified protein; type: biochemical, Gluconobacter oxydans; details: NADPH
purified protein [9] = substrate: O=C1Nc2ccccc2C1=O; assay: purified protein; type: biochemical, Gluconobacter oxydans; details: NADPH
purified protein [10] = substrate: O=C1C=C2C(=CCOC2O)O1; assay: purified protein; type: biochemical, Gluconobacter oxydans
[11] = substrate: CCCC=O; assay: purified protein, by the assay type; parameters: steady-state Michaelis-Menten kinetics of carbonyl substrate reduction, NADPH consumption at 340 nm, 25 °C; details: 25.0 °C
Procedure: as §1

[12] = substrate: O=CCO; assay: purified protein, by the assay type; parameters: steady-state Michaelis-Menten kinetics of carbonyl substrate reduction, NADPH consumption at 340 nm, 25 °C; details: 25.0 °C
Procedure: as §1

purified protein [13] = substrate: O=Cc1ccco1; assay: purified protein; type: biochemical, Gluconobacter oxydans; details: NADPH
[14] = NADPH docked as the ring-opened aldehyde form: hydrogen bonds with catalytic Tyr61, Ser157 and Asn158
[15] = NADPH docked as the ring-opened aldehyde form: hydrogen bonds with catalytic Tyr159 and Thr146, Tyr156, Glu201, Pro191, Pro189

Molecule	Km [3] [µM]	kcat [3] [s⁻¹]	kcat/Km [3] [M⁻¹ s⁻¹]	Km [4] [µM]	kcat [4] [s⁻¹]	kcat/Km [4] [M⁻¹ s⁻¹]	Km [5] [µM]	kcat [5] [s⁻¹]	kcat/Km [5] [M⁻¹ s⁻¹]	Km (purified protein [8]) [µM]	kcat (purified protein [8]) [s⁻¹]	kcat/Km (purified protein [8]) [M⁻¹ s⁻¹]	Km (purified protein [9]) [µM]	kcat (purified protein [9]) [s⁻¹]	kcat/Km (purified protein [9]) [M⁻¹ s⁻¹]	also measured
NC(=O)C1=CN([C@@H]2O[C@H](COP(=O)(O)OP(=O)(O)OC[C@H]3O[C@@H](n4cnc5c(N)ncnc54)[C@H](OP(=O)(O)O)[C@@H]3O)[C@@H](O)[C@H]2O)C=CC1 [NADPH]																Kd (GOX1462): 30.3 ± 3.56 µM; Kd (GOX0716): 20.5 ± 2.86 µM
B1	164 ± 13.7	0.0228 ± 0.000523	139 ± 12	513 ± 141	0.0251 ± 0.00251	48.9 ± 14.3	178 ± 15.6	0.027 ± 0.000671	152 ± 13.8	31.9 ± 4.85	5.79 ± 0.234	182000 ± 28600	107 ± 17.1	0.163 ± 0.00536	1520 ± 248	Km [1]: 258 ± 37.7 µM; kcat [1]: 0.0184 ± 0.000807 s⁻¹; kcat/Km [1]: 71.3 ± 10.9 M⁻¹ s⁻¹; Km [2]: 483 ± 85.9 µM; kcat [2]: 0.0181 ± 0.00121 s⁻¹; kcat/Km [2]: 37.5 ± 7.12 M⁻¹ s⁻¹; Km [6]: 1990 ± 238 µM; kcat [6]: 0.221 ± 0.0159 s⁻¹; kcat/Km [6]: 111 ± 15.5 M⁻¹ s⁻¹; Km (purified protein [7]): 139 ± 14.4 µM; kcat (purified protein [7]): 0.0241 ± 0.000654 s⁻¹; kcat/Km (purified protein [7]): 173 ± 18.5 M⁻¹ s⁻¹; Km (purified protein [10]; [14]): 178 ± 25.4 µM; kcat (purified protein [10]; [14]): 0.0389 ± 0.00145 s⁻¹; kcat/Km (purified protein [10]; [14]): 219 ± 32.3 M⁻¹ s⁻¹
B2	417 ± 52.1	0.0442 ± 0.00201	106 ± 14.1	509 ± 71.7	0.00946 ± 0.000516	18.6 ± 2.81	637 ± 72.8	0.0402 ± 0.00191	63.1 ± 7.81	46.9 ± 8.17	3.14 ± 0.181	67000 ± 12300	282 ± 40.3	0.127 ± 0.00588	450 ± 67.6	Km [11]: 351 ± 40.4 µM; kcat [11]: 0.0339 ± 0.00135 s⁻¹; kcat/Km [11]: 96.6 ± 11.8 M⁻¹ s⁻¹; Km [12]: 607 ± 110 µM; kcat [12]: 0.00643 ± 0.000459 s⁻¹; kcat/Km [12]: 10.6 ± 2.06 M⁻¹ s⁻¹; Km (purified protein [13]): 94.8 ± 8.91 µM; kcat (purified protein [13]): 0.0103 ± 0.000223 s⁻¹; kcat/Km (purified protein [13]): 109 ± 0.0964 M⁻¹ s⁻¹; Km (purified protein [10]; [15]): 1300 ± 213 µM; kcat (purified protein [10]; [15]): 0.0468 ± 0.00402 s⁻¹; kcat/Km (purified protein [10]; [15]): 36 ± 6.66 M⁻¹ s⁻¹
